B1: NSFL1 cofactor p47 (Rattus norvegicus (Rat)), O35987 (parent)
chain: MAEERQDALREFVAVTGAEEDRARFFLESAGWDLQIALASFYEDGGDEDIVTISQATPSSVSRGTAPSDNRVTSFRDLIHDQDEEEEEEEGQRFYAGGSERSGQQIVGPPRKKSPNELVDDLFKGAKEHGAVAVERVTKSPGETSKPRPFAGGGYRLGAAPEEESAYVAGERRRHSGQDVHVVLKLWKTGFSLDNGDLRSYQDPSNAQFLESIRRGEVPAELRRLAHGGQVNLDMEDHRDEDFVKPKGAFKAFTGEGQKLGSTAPQVLNTSSPAQQAENEAKASSSILINEAEPTTNIQIRLADGGRLVQKFNHSHRISDIRLFIVDARPAMAATSFVLMTTFPNKELADENQTLKEANLLNAVIVQRLT
B2: UBX domain-containing protein 2B (Mus musculus), Q0KL01 (parent)
chain: MAEGGRAEPEEQERGSSRPRPPSARDLQLALAELYEDEMKCKSSKPDRSTPATCRSPRTPPHRLYSGDHKYDGLHIVQPPTGKIVNELFKEAREHGAVPLNEATRSSREDKTKSFTGGGYRLGNSFYKRSEYIYGENQLQDVQVLLKLWRNGFSLDDGELRPYSDPTNAQFLESVKRGETPLELQRLVHGAQVNLDMEDHQDQEYIKPRLRFKAFSGEGQKLGSLTPEIVSTPSSPEEEDKSILNAAVLIDDSMPTTKIQIRLADGSRLVQRFNSTHRILDVRDFIVRSRPEFATTDFILVTSFPSKELTDETVTLQEADILNTVILQQLK

Variants of: B1
Conditions: with tera_rat Vcp
Target sequence in this assay (P46462 whole entry): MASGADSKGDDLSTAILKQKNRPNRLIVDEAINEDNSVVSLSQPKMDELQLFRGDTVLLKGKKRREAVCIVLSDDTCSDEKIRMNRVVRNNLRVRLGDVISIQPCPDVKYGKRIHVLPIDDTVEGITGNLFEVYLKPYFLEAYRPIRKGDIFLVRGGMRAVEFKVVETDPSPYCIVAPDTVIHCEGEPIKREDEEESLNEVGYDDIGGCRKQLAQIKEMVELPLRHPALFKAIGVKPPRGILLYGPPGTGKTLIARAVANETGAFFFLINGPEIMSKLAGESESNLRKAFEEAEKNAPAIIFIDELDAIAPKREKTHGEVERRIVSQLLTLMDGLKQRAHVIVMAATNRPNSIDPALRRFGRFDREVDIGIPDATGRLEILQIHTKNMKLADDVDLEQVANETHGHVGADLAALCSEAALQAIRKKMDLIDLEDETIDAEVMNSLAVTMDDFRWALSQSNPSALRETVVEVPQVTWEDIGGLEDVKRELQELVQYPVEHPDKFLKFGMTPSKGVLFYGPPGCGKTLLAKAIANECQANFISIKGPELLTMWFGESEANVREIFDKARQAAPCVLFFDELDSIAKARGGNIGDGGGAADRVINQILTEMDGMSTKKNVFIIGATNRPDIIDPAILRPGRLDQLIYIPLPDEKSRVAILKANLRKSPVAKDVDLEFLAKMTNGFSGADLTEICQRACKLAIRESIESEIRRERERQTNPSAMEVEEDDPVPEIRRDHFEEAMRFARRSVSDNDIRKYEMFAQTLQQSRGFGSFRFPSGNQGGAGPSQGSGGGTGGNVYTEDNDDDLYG

Row | Variant | effect of a mutation on the interaction
1 | F253S | disrupting interaction

Variants of: B1
Conditions: with tera_mouse Vcp

Row | Variant | effect of a mutation on the interaction
2 | F253S | disrupting interaction

Variants of: B2
Conditions: with tera_rat Vcp
Target sequence in this assay (P46462 whole entry): as above

Row | Variant | effect of a mutation on the interaction
3 | F215S | disrupting interaction

From IntAct's records for PubMed 20691684
